Assay results reported in US20260158095A1, “PLANT EXTRACT AND USE THEREOF IN TOPICAL COMPOSITIONS” (TERM HELVET SA, priority 2021, published 2026).

Test system: human keratinocyte culture
Experiment: Filopodia formation in human keratinocyte culture (rhodamine-phalloidin staining, fluorescence microscopy)
Format: cell-based
Details: human keratinocytes
Procedure: Table 2 indicates the intensity of filopodia formation (number and surface area) in vitro in four keratinocyte cultures under four operating conditions, after treatment with: • a solvent, • HB-EGF (heparin-binding epidermal growth factor), • Picrorhiza kurroa extract obtained without hydrolysis, and • Picrorhiza kurroa extract obtained following hydrolysis.
The test is performed using a human keratinocyte culture divided into four batches. Cells are treated for 1 h with the products to be tested, fixed in 4% formalin, and then stained with rhodamine-conjugated α-phalloidin (α-phalloidin has high affinity for actin filaments, and its conjugation to rhodamine makes actin filaments fluorescent [540 nm; 565 nm]). The cell morphology is then analyzed under a fluorescence microscope (FIG. 2). • A, solvent, negative (no stimulation); • B, HB-EGF (heparin-binding epidermal growth factor), reference epidermal trophic factor, 5 ng/ml; • C, Picrorhiza kurroa extract obtained without hydrolysis, 100 μg/ml; • D, Picrorhiza kurroa extract obtained following hydrolysis, 100 μg/ml.

B1: HB-EGF: heparin-binding epidermal growth factor, reference epidermal trophic factor, positive control (protein, UniProt Q99075 63-148, looked up)
Heparin-binding EGF-like …: DLQEADLDLLRVTLSSKPQALATPNKEEHGKRKKKGKGLGKKRDPCLRKYKDFCIHGECKYVKELRAPSCICHPGYHGERCHGLSL
5 ng/ml, 1 h treatment
  Visual evaluation of the production of filopodia (scale from 0 to 3): 3
HB-EGF 5 ng/ml, extracts 100 μg/ml, 1 h
  Intensity of filopodia formation (effect in words): intense effect
